Here are results for one substance from patent publication US20040048311A1.

Assay [1] concerns the target 38C13 IgM. Briefly: antibody microarray on FAST slide, purified 38C13 IgM, detection with goat anti-mouse IgM HRP, chemiluminescence.
For assay [2], the target named is 38C13 IgM. The assay can be described thus: antibody microarray on FAST slide, 38C13 cell extract at 1:2000 dilution, detection with goat anti-mouse IgM HRP, chemiluminescence.

In the assay with 38C13 IgM [1], S1C5 anti-idiotype monoclonal antibody returned a lowest IgM concentration giving signal of 0.1 µg/mL and a lowest spotted S1C5 concentration giving signal of 25 µg/mL. The substance also yielded a lowest printed S1C5 concentration giving signal with 38C13 IgM [2] of 50 µg/mL.
